Data reported in publication doi:10.1101/2023.10.18.562911.

Tests used:
[1] = target: full-length GST-Rfa1 (S. cerevisiae) (UniProt P22336); experiment: MST
[2] = target: full-length GST-yKu70 (S. cerevisiae) (UniProt P32807); experiment: MST
UniProt P32807, sequence (P32807 whole entry): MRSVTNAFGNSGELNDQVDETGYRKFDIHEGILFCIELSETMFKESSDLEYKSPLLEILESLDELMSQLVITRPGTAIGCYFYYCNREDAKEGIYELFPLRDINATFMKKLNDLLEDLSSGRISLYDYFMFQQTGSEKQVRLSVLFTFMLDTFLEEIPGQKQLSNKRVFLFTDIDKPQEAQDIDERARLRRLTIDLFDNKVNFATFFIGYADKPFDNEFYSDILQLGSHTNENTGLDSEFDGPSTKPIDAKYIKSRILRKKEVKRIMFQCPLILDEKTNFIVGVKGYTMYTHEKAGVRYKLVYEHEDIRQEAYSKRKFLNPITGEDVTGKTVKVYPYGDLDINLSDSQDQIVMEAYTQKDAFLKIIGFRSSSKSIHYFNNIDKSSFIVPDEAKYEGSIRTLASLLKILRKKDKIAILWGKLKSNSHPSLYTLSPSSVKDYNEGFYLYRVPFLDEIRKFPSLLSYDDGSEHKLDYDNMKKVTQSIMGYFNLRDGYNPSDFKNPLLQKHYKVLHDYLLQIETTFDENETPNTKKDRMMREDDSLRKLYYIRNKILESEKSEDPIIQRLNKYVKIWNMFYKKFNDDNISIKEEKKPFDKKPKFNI

UniProt P22336, sequence (P22336 whole entry): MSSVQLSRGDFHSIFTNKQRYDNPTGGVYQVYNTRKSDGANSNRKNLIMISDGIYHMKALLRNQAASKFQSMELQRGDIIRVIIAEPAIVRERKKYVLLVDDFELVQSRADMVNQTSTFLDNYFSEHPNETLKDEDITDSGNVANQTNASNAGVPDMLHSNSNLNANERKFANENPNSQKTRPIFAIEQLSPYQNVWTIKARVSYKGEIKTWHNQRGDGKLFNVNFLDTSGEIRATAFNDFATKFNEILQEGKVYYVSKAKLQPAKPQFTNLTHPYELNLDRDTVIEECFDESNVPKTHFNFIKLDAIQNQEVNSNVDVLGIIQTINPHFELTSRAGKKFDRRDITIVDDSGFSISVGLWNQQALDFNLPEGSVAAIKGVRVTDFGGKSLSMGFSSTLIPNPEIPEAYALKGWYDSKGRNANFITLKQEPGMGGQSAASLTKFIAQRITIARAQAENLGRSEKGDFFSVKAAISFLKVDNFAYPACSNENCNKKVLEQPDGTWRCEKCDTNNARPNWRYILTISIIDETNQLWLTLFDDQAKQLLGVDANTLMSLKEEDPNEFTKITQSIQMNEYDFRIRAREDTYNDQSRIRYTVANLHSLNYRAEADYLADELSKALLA

| Kd [1] [nM] | Kd [2] [nM] | Substance |
| --- | --- | --- |
| 1000 | – | yeast Y149F^me3 nucleosomes (from UniProt P61830 1-136) (complex) |
| – | 1200 | yeast Y236F^me2 nucleosomes (from UniProt P61830 1-136) (complex) |
| 1000 | 1200 | native chicken erythrocyte nucleosomes (complex) |
